# Patent US20220064284A1 (Janssen / Centocor, published 2022)
# How the values were obtained:
# GP5B305 = biological target: T1, GP5B305; assay: SPR (ProteOn XPR36), mAb captured on anti-mouse Fc, antigen 50 nM to 0.2 nM in solution
# T1 construct: Used as the analyte in the ProteOn assay ('Antigens (scFV Fc Fusions)'); not shown: Hinge/Fc of HC2; all of HC1 (CD3B376 Fab heavy chain with C-terminal BCMB516-LH-scFv); CD3B376 light chain
# Procedure: ProteOn XPR36 system (BioRad) was used to perform binding assays. ProteOn GLC chips (BioRad, Cat #176-5011) were coated with Anti-Mouse Fc antibody. Library Antibodies (Mouse IgG2a) diluted to 0.25 ug/ml to 1 ug/ml to reach approximately 100-200RL. Antigens (scFV Fc Fusions) are associated at 50 nM to 0.2 nM, 1:4 dilutions for 3 minutes. Dissociation for 30 mins. The results of the assay (Table 1 below) show picomolar affinity of GP5B318 with GP5B305. GP5B305 is a bi-specific antibody that includes HCl N-Terminal CD3B376-Fab/C-Terminal BCMB516-LH-scFv* and HC2 N-Terminal GP5B83 N23T, N30S-LH-scFv*.
# [1] = biological target: T2, GPRC5D CAR GP5DB83-HL expressed on SupT1 cells; assay: flow cytometry on GPRC5D CAR (GP5DB83-HL) SupT1 cells, unconjugated GP5B318 detected with PE-goat anti-mouse IgG, PE MFI
# T2 construct: Chimeric antigen receptor with the GP5B83 scFv in VH-VL order; also called GP5DB83-HL CAR; CAR 1 (GP5B83-HL)
# T2 sequence (chain, as listed by the source limits assumed): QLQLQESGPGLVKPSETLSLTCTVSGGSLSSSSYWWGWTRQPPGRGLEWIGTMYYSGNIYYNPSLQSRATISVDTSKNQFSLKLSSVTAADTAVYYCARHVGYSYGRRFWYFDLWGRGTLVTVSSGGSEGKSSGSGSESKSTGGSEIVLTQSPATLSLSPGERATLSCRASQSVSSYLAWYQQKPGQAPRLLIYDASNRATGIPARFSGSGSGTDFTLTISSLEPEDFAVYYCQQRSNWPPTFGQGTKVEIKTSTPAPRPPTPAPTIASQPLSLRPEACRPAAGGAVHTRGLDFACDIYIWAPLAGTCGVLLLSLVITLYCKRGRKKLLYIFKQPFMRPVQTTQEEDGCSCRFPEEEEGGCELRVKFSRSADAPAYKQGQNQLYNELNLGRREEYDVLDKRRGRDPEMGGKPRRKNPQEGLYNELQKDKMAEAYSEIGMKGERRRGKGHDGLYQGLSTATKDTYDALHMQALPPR
# Procedure: SupT1 cells expressing GP5DB83-HL were compared to parental CAR-SupT1 cells. SupT1 cells expressing GP5DB83-HL and parental CAR-SupT1 cells were stained with near IR LIVE/DEAD fluorescent reactive dye on ice for 20 mins. After incubation, the cells were washed and resuspended in BSA stain buffer Cells (100,000 cells/well) were plated in a 96 well plate and incubated with increasing concentrations of GP5B318 for 30 minutes on ice with and without 10 μg/mL CAR-Fc Fusion protein, GP5B83_N24T_N315-HL-hu Fc-scFv (GP5B30.002). Following incubation, the samples were washed with BSA stain buffer and stained with PE-goat anti-mouse IgG polyclonal to detect bound antibody on live SupT1 cells. After incubation, washing, and fixation, the samples were acquired on a 10 color FACSCanto II flow cytometer. Analysis was done using FlowJo and the PE median fluorescent intensity of live SupT1 cells is plotted in FIG. 3. […] No binding was detected on CAR-SupT1 parental cells.
# [2] = biological target: T2, GPRC5D CAR GP5DB83-HL expressed on …; assay: flow cytometry on GPRC5D CAR (GP5DB83-HL) SupT1 cells, directly PE-conjugated GP5B318, PE MFI
# Procedure: GP5B318 was conjugated to R-PE as described above and tested for binding to GP5DB83-HL SupT1 in the presence or absence of 10 μg/mL GP5DB83-scFv Fc fusion protein to assess the specificity of GP5B318 binding to GP5DB83-HL CAR and ensure CAR detection was not affected by PE labeling. GP5DB83-HL SupT1 cells were stained with near IR LIVE/DEAD fluorescent reactive dye in 50 mL tube on ice for 20 mins. After incubation, the cells were washed and resuspended in BSA stain buffer to 2×10⁶ cells/mL. 100,000 cells/well were seeded in 96 well plate and incubated with increasing concentrations of PE-GP5B318 and 10 μg/mL GP5DB83-scFv Fc for 45 minutes on ice. After incubation, washing, and fixation, the samples were acquired on a 10 color FACSCanto II flow cytometer. Analysis was performed using FlowJo analysis software and the PE median fluorescent intensity of live SupT1 cells is plotted in FIG. 4.
# T1 sequence (scFv, as listed by the source limits assumed): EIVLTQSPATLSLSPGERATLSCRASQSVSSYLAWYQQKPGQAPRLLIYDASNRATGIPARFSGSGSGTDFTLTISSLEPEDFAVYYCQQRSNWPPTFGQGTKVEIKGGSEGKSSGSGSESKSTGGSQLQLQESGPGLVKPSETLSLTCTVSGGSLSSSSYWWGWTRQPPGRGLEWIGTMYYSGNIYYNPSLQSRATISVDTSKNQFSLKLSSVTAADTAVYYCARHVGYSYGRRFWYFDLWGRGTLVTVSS
Binder,Kd (GP5B305),koff (GP5B305),kon (GP5B305),EC50 [1],EC50 [2]
"GP5B318 (antibody, mouse IgG2a, kappa, V domains shown, made in HEK293 Expi or CHO; also called anti-idiotypic antibody GP5B318; chimeric mAb with human VH/VL and murine IgG2a/k) VH: EVQLVQSGAEVKKPGESLKISCKGSGYSFTSYWIGWVRQMPGKGLEWMGIIYPGDSDTRYSPSFQGQVTISADKSISTAYLQWSSLKASDTAMYYCARGWDYGTGEFDYWGQGTLVTVSS VL: EIVLTQSPGTLSLSPGERATLSCRASQSIGNWLNWYQQKPGKAPKLLIYYASSLQSGVPSRFSGSGSGTDFTLTISSLQPEDFAVYYCQQSLSFPITFGQGTKVEIKR",< 2.9 pM,< 2.9e-05 s⁻¹,> 1e+07 M⁻¹ s⁻¹,0.03 µg/mL,–
"PE-GP5B318 (antibody, mouse IgG2a, kappa, V domains shown, antibody conjugated to R-phycoerythrin, purified to a 1:1 PE:antibody ratio; site not stated, GP5B318 labelled with phycoerythrin (Expedeon kit); also called PE-P5B318; GP5B318 conjugated to R-PE) VH: EVQLVQSGAEVKKPGESLKISCKGSGYSFTSYWIGWVRQMPGKGLEWMGIIYPGDSDTRYSPSFQGQVTISADKSISTAYLQWSSLKASDTAMYYCARGWDYGTGEFDYWGQGTLVTVSS VL: EIVLTQSPGTLSLSPGERATLSCRASQSIGNWLNWYQQKPGKAPKLLIYYASSLQSGVPSRFSGSGSGTDFTLTISSLQPEDFAVYYCQQSLSFPITFGQGTKVEIKR",–,–,–,–,0.1 µg/mL
